Reference: publication PMC10229695
pIC50: −log10 of the molar value.

Columns and labels:
NLRP3 WT (human) = test: competition pulldown (streptavidin beads, western blot); details: elution from biotinylated mtDNA beads, EMSA and pulldown: 50 mM Tris pH 7.4, 100 mM NaCl, 2 mM MgCl2, 12% glycerol, 4 C overnight (EMSA plus 2e-5 mg/ml salmon sperm DNA, 1e-5 uM ox-mtDNA), Fig …
[1] = tested on: NLRP3 L266F (NOMID, C790T) (human); test: as above; details: elution from biotinylated mtDNA beads; oxidized guanine (8-oxoguanine); EMSA and pulldown: 50 mM Tris pH 7.4, 100 mM NaCl, 2 mM MgCl2, 12% glycerol, 4 C overnight (EMSA plus 2e-5 mg/ml salmon sperm DNA, 1e-5 uM ox-mtDNA); Fig …

Substance | pIC50 (NLRP3 WT (human); R2 0.98, abstract prints 4 nM) | pIC50 (NLRP3 WT (human); poor fit, R2 0.6, text prints 247 nM, oxidized guanine (8-oxoguanine)) | pIC50 [1]
non-oxidized mtDNA competitor (unlabeled) | 8.32 |  | 
ox-mtDNA competitor (unlabeled) |  | 6.61 | 8.09
